Experimental data published in article PMC11087256.
Like-named read-outs stand apart in the source and are kept apart here.

Tests used:
GST-EphA2 [1] = molecular target: GST-EphA2 (UniProt P29317); test: ELISA; 200 ng GST-EphA2 coated on 96-well plates overnight at 4 °C, blocked with 5% BSA in PBS; gradient concentrations of 6×His proteins, 2 h at room temperature; anti-His or anti-GST antibody, HRP secondary, absorbance at 450 nm
GST-EphA2 [2] = molecular target: GST-EphA2 (UniProt P29317); test: ELISA; as the ELISA on GST-EphA2-coated plates, gH/gL or gB incubated in the presence of IFITM1 (concentration of IFITM1 not stated)
GST-EphA2 [3] = molecular target: GST-EphA2 (UniProt P29317); test: ELISA; 200 ng GST-EphA2 coated on 96-well plates overnight at 4 °C, blocked with 5% BSA in PBS; gradient concentrations of 6×His proteins, 2 h at room temperature; anti-His or anti-GST antibody, HRP secondary, absorbance at 450 nm; remark: listed apart in the source

| Substance | EC50 (GST-EphA2 [1]) | EC50 with IFITM1 (GST-EphA2 [2]) | EC50 (GST-EphA2 [3]) |
| --- | --- | --- | --- |
| 6×His-gH/gL (from UniProt P03231 19-706; P03212 23-137) (complex) | 0.0335 µM | 0.0757 µM | 0.032 µM |
| soluble 6×His-IFITM1 fusion protein (sIFITM1) (from UniProt P13164 1-125) (natural protein) | 0.0154 µM | – | – |
